Assay results from the supplement of paper PMC9170038.

Tested on: MS2 coat protein
Experiment: apparent KD of MS2 coat protein, switch OFF state (with FMN for OFF switches, without FMN for ON switches); designed switch direction (-1 OFF switch, 1 ON switch): -1; higher = weaker reporter binding
Conditions: FMN input: 0 or 200 uM; Eterna round: R93 (includes R88 designs)
Outline: (§1)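 Designed RNA switches were transcribed on-chip from Illumina sequencing clusters. They were then titrated with SNAP-549-labelled MS2 coat protein (twofold steps, 0.7 or 1.5 nM to 3 µM; 0.8–1.5 h to 10–20 min per step) in 100 mM Tris-HCl pH 7.5, 80 mM KCl, 4 mM MgCl2, without or with constant ligand. Apparent KD is the per-design median of normalised cluster binding-curve fits.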

Sequence	apparent KD of MS2 coat protein [nM]
AUCAUGUCAGGAUAUCAGUAGUAAAAAAAAAAAAUUACUACUGAGAAGGGACAUGAGGAUCACCCAUGUCCAAA [EX4 306: Super Stable 6]	46.2
AAAAAACAUGAGGAUCACCCAUGUGAGGAUAUCCAGAAGGGAAUAAAAUAACACGAAAGGAGAAGGCGCAAAAA [Ex 1 May 35]	31.1
AAGAAGUCAGGAUAUACAUGAGGAUCACCCAUGUAAAAGAAAGAAGGGAAAGAGAAAAGUAGAAGGGACAAGAA [Usermaatre-setpenamun Takelot III]	19.9
UAAAAACAUGAGGAUCACCCAUGUGAGGAUAUACGAAAGUAGAAGGCACUAAAAUAAAAUAGAAGGAUAAAAUA [Meechl Ex1 R2 m1]	37.5
AGUAGUACAGGAUAUACAUGAGGAUCACCCAUGUGAAAAGAAAGUGGCGUACCACAAAGUAGAAGGGUACUACA [Mat - Exclusion 3 - JL mod - D34]	152
AGCUAACAUGAGGAUCACCCAUGUCAGGAUAUGCAAAGAUCGAUCGAACGAUCGAUAAGCAGAAGGGACACUGA [Amethyst 94]	47.5
AGGGAACAUGAGGAUCACCCAUGUGAGGAUAUUGAAAAGAAAAGAAAAGAAAGAAGAACAAGAAGGUACAAGAA [Meryre Pepi I]	24.8
AAAGGACGAGGAUAUACAUGAGGAUCACCCAUGUAAAGGGCAUAAUAAAAGAACUUAUGUAGAAGGCGUCCAAA [69%, Moding Meechl, 6]	15.6
AACAGGUCAGGAUAUGUGGAAAAAAUAAAAAAAAUAAAAACACAGAAGGGACAUGAGGAUCACCCAUGUUAACA [May 25]	38.8
AAGAAUCGAGGAUAUACAUGAGGAUCACCCAUGUAAAAGAAAGAAAGGGAAAAGAAAAGUAGAAGGCGAAAGAA [Usermaatre-setepenre Shoshenq III]	23.6
AAAAAACAUGAGGAUCACCCAUGUAAGGAUAUCGUGCAGAAAAAAAAAAAAAACUGCACGAGAAGGUACUUGGA [Brourd - Exclusion 1 - Sub 3]	87.9
AGCUAGUCAGGAUAUACGAACAGCUCAAAAGAGCUGAAGGGACAUGAGGAUCACCCAUGUAGAAGGGACUAGCA [Mat - Exclusion 2 - JL mod - D27]	89.6
AGCUAGUGAGGAUAUACGAACAAGUAAACGGACUGUAAGGGACAUGAGGAUCACCCAUGUAGAAGGCACUAGCA [Diamond 59]	74.5
AACAGUACAGGAUAUACAUGAGGAUCACCCAUGUGAGAAUUAAGUGGAGAACCACAAAGUAGAAGGGUACUGGA [Mat - Exclusion 3 - JL mod - D2]	250
CUAGUACAUGAGGAUCACCCAUGUCAGGAUAUUGGAUAUGCCAUGGAAAACAUGUUUACAAGAAGGGACUAUAG [EX1 Malc#22]	36.4
AAAAAACAUGAGGAUCACCCAUGUGAGGAUAUGCAAAAAAAAAAAAAAAAAUAAAAAAGCAGAAGGCACAAAAA [Sh'dynasty]	33.2
UACGGACAUGAGGAUCACCCAUGUGAGGAUAUCGAUACCGAUAGCAUAAUAUAAUCGGCGAGAAGGCACAGCGU [JR_Exc001_Sub505]	54.7

Sequence	apparent KD of MS2 coat protein [nM]
GAUAGUGAAGGAUAUACUGGAGGAGUGCGAUAAAAGAAAGAACAUGAGGAUCACCCAUGUAGAAGGUCAGAAGU [JR_Exc002_Sub1226]	27.3
AAGAAAGCAGGAUAUACAUGAGGAUCACCCAUGUAAAAGAAAGAAAAGGGAAAGAAAAGUAGAAGGGCUAAGAA [User/Heqamaatre-setpenamun Ramesses IV]	74.1
AACUGACAUGAGGAUCACCCAUGUCAGGAUAUGACAUCGAAAAAAAAAAAAAUCGUUGUCAGAAGGGACAUGGA [Design 74: Sub-opt R]	32.5
AACAAGUGAGGAUAUCGGAAAAGAAAAUAAGAUACACAAAACGAGAAGGCACAUGAGGAUCACCCAUGUAAAUA [JR_Exc004_Sub012]	41.5
CUCAAGUAAGGAUAUGCAAGAAAAGAAGAGAAAGAAAAGAAGCAGAAGGUACAUGAGGAUCACCCAUGUAAGAA [EteRNA is fun!]	35.8
AAAAAGGAAGGAUAUACGAACAUGUCAAAAGACGUGAAGGGACAUGAGGAUCACCCAUGUAGAAGGUCUAAAAA [JL Half Open 26]	22.9
AAAUAGUUAGGAUAUACAUGAGGAUCACCCAUGUGCACGUAUGGAGAAUAUGGUAAUGGUAGAAGGGACUAAAA [EX2 Malc#21]	76.5
AAAAAGUCAGGAUAUCGGAAAAAAAAAAAAAAAAAAAAAAACGAGAAGGGACAUGAGGAUCACCCAUGUAUGAC [Ex 4 May 7]	243
AACUGACAUGAGGAUCACCCAUGUCAGGAUAUGCUUCUAGGAAAAAAAAAAACUAGAUGCAGAAGGGAUAUGGA [Design 37 :P Sub-opt 13]	12.1
UUUAUGUGAGGAUAUCAGUAGUAAAAAAAUAAAAUUACUACUGAGAAGGCACAUGAGGAUCACCCAUGUGUCUC [EX4 350: Super Stable 50]	15
AAGACUAGAGGAUAUACAUGAGGAUCACCCAUGUAACUGUCAGGAAACUGACGGAGAAGUAGAAGGCUAGUCAA [Mat - Exclusion 3 - JL mod - D85]	20.2
AGUGAGUGAGGAUAUCACUGAAGAAUAAAAGAAAUAACGAGUGAGAAGGCACAUGAGGAUCACCCAUGUACACA [May 63]	18.3
AAAACGGUAGGAUAUACGAAAAAAAAGGGAGAACAAAAGGGACAUGAGGAUCACCCAUGUAGAAGGACCAAAAA [Diamond 89]	84.7
ACAGUUACAGGAUAUACAAGGGAAAAUAAAAAUAAACUUCAACAUGAGGAUCACCCAUGUAGAAGGGUAACUGA [Ex2 Design 199: Random 14]	112
AAGGGACAUGAGGAUCACCCAUGUAAGGAUAUCGGAAAAGGAAAAAAAAAAAAUAAGACGAGAAGGUACAAAAA [Mat - Exclusion 1 - Eli mod - D80]	73.5
AAUGCGGCAGGAUAUACAUGAGGAUCACCCAUGUACAUCAGAUAUAUGGUCGAACCAUGUAGAAGGGCCGCAAA [Ex 3May 57]	202
AAGAAGUCAGGAUAUGCCAGAGAACAAGAAAGUGAAGAAUAGCAGAAGGGACAUGAGGAUCACCCAUGUAAAGA [Opal 11]	34.5

Tested on: MS2 coat protein
Experiment: apparent KD of MS2 coat protein, switch ON state; designed switch direction (-1 OFF switch, 1 ON switch): -1; higher = weaker reporter binding
Conditions: FMN input: 0 or 200 uM; Eterna round: R93 (includes R88 designs)
Outline: as §1

Sequence	apparent KD of MS2 coat protein [nM]
AUCAUGUCAGGAUAUCAGUAGUAAAAAAAAAAAAUUACUACUGAGAAGGGACAUGAGGAUCACCCAUGUCCAAA [EX4 306: Super Stable 6]	32.1
AAAAAACAUGAGGAUCACCCAUGUGAGGAUAUCCAGAAGGGAAUAAAAUAACACGAAAGGAGAAGGCGCAAAAA [Ex 1 May 35]	35.8
AAGAAGUCAGGAUAUACAUGAGGAUCACCCAUGUAAAAGAAAGAAGGGAAAGAGAAAAGUAGAAGGGACAAGAA [Usermaatre-setpenamun Takelot III]	31.9
UAAAAACAUGAGGAUCACCCAUGUGAGGAUAUACGAAAGUAGAAGGCACUAAAAUAAAAUAGAAGGAUAAAAUA [Meechl Ex1 R2 m1]	23.2
AGUAGUACAGGAUAUACAUGAGGAUCACCCAUGUGAAAAGAAAGUGGCGUACCACAAAGUAGAAGGGUACUACA [Mat - Exclusion 3 - JL mod - D34]	33.7
AGCUAACAUGAGGAUCACCCAUGUCAGGAUAUGCAAAGAUCGAUCGAACGAUCGAUAAGCAGAAGGGACACUGA [Amethyst 94]	27.1
AGGGAACAUGAGGAUCACCCAUGUGAGGAUAUUGAAAAGAAAAGAAAAGAAAGAAGAACAAGAAGGUACAAGAA [Meryre Pepi I]	21.8
AAAGGACGAGGAUAUACAUGAGGAUCACCCAUGUAAAGGGCAUAAUAAAAGAACUUAUGUAGAAGGCGUCCAAA [69%, Moding Meechl, 6]	79.1
AACAGGUCAGGAUAUGUGGAAAAAAUAAAAAAAAUAAAAACACAGAAGGGACAUGAGGAUCACCCAUGUUAACA [May 25]	36.6
AAGAAUCGAGGAUAUACAUGAGGAUCACCCAUGUAAAAGAAAGAAAGGGAAAAGAAAAGUAGAAGGCGAAAGAA [Usermaatre-setepenre Shoshenq III]	23.4
AAAAAACAUGAGGAUCACCCAUGUAAGGAUAUCGUGCAGAAAAAAAAAAAAAACUGCACGAGAAGGUACUUGGA [Brourd - Exclusion 1 - Sub 3]	43.1
AGCUAGUCAGGAUAUACGAACAGCUCAAAAGAGCUGAAGGGACAUGAGGAUCACCCAUGUAGAAGGGACUAGCA [Mat - Exclusion 2 - JL mod - D27]	24.5
AGCUAGUGAGGAUAUACGAACAAGUAAACGGACUGUAAGGGACAUGAGGAUCACCCAUGUAGAAGGCACUAGCA [Diamond 59]	28.6
AACAGUACAGGAUAUACAUGAGGAUCACCCAUGUGAGAAUUAAGUGGAGAACCACAAAGUAGAAGGGUACUGGA [Mat - Exclusion 3 - JL mod - D2]	37.1
CUAGUACAUGAGGAUCACCCAUGUCAGGAUAUUGGAUAUGCCAUGGAAAACAUGUUUACAAGAAGGGACUAUAG [EX1 Malc#22]	32.9
AAAAAACAUGAGGAUCACCCAUGUGAGGAUAUGCAAAAAAAAAAAAAAAAAUAAAAAAGCAGAAGGCACAAAAA [Sh'dynasty]	30.6
UACGGACAUGAGGAUCACCCAUGUGAGGAUAUCGAUACCGAUAGCAUAAUAUAAUCGGCGAGAAGGCACAGCGU [JR_Exc001_Sub505]	39.9

Sequence	apparent KD of MS2 coat protein [nM]
GAUAGUGAAGGAUAUACUGGAGGAGUGCGAUAAAAGAAAGAACAUGAGGAUCACCCAUGUAGAAGGUCAGAAGU [JR_Exc002_Sub1226]	24.7
AAGAAAGCAGGAUAUACAUGAGGAUCACCCAUGUAAAAGAAAGAAAAGGGAAAGAAAAGUAGAAGGGCUAAGAA [User/Heqamaatre-setpenamun Ramesses IV]	27.2
AACUGACAUGAGGAUCACCCAUGUCAGGAUAUGACAUCGAAAAAAAAAAAAAUCGUUGUCAGAAGGGACAUGGA [Design 74: Sub-opt R]	20.9
AACAAGUGAGGAUAUCGGAAAAGAAAAUAAGAUACACAAAACGAGAAGGCACAUGAGGAUCACCCAUGUAAAUA [JR_Exc004_Sub012]	35.9
CUCAAGUAAGGAUAUGCAAGAAAAGAAGAGAAAGAAAAGAAGCAGAAGGUACAUGAGGAUCACCCAUGUAAGAA [EteRNA is fun!]	37.3
AAAAAGGAAGGAUAUACGAACAUGUCAAAAGACGUGAAGGGACAUGAGGAUCACCCAUGUAGAAGGUCUAAAAA [JL Half Open 26]	32.4
AAAUAGUUAGGAUAUACAUGAGGAUCACCCAUGUGCACGUAUGGAGAAUAUGGUAAUGGUAGAAGGGACUAAAA [EX2 Malc#21]	44.5
AAAAAGUCAGGAUAUCGGAAAAAAAAAAAAAAAAAAAAAAACGAGAAGGGACAUGAGGAUCACCCAUGUAUGAC [Ex 4 May 7]	56.9
AACUGACAUGAGGAUCACCCAUGUCAGGAUAUGCUUCUAGGAAAAAAAAAAACUAGAUGCAGAAGGGAUAUGGA [Design 37 :P Sub-opt 13]	14.5
UUUAUGUGAGGAUAUCAGUAGUAAAAAAAUAAAAUUACUACUGAGAAGGCACAUGAGGAUCACCCAUGUGUCUC [EX4 350: Super Stable 50]	17.5
AAGACUAGAGGAUAUACAUGAGGAUCACCCAUGUAACUGUCAGGAAACUGACGGAGAAGUAGAAGGCUAGUCAA [Mat - Exclusion 3 - JL mod - D85]	16.1
AGUGAGUGAGGAUAUCACUGAAGAAUAAAAGAAAUAACGAGUGAGAAGGCACAUGAGGAUCACCCAUGUACACA [May 63]	24.1
AAAACGGUAGGAUAUACGAAAAAAAAGGGAGAACAAAAGGGACAUGAGGAUCACCCAUGUAGAAGGACCAAAAA [Diamond 89]	40.6
ACAGUUACAGGAUAUACAAGGGAAAAUAAAAAUAAACUUCAACAUGAGGAUCACCCAUGUAGAAGGGUAACUGA [Ex2 Design 199: Random 14]	35.5
AAGGGACAUGAGGAUCACCCAUGUAAGGAUAUCGGAAAAGGAAAAAAAAAAAAUAAGACGAGAAGGUACAAAAA [Mat - Exclusion 1 - Eli mod - D80]	70.2
AAUGCGGCAGGAUAUACAUGAGGAUCACCCAUGUACAUCAGAUAUAUGGUCGAACCAUGUAGAAGGGCCGCAAA [Ex 3May 57]	87.3
AAGAAGUCAGGAUAUGCCAGAGAACAAGAAAGUGAAGAAUAGCAGAAGGGACAUGAGGAUCACCCAUGUAAAGA [Opal 11]	46.9
